Several values for one entry are separate records, joined by “and”; a condition that tells them apart may be missing. Equal entries are not always repeated.
Experiments:
[1] = biological target: T1, Nrp1 cytoplasmic domain (UniProt P97333 880-923); assay: ITC
[2] = biological target: T1, Nrp1 cytoplasmic domain; assay: SPR

T1 sequence (P97333 880-923): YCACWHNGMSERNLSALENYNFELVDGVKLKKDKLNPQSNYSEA

B1: FlnA repeats 23-24 (domain or fragment)
chain: GHGGDPGLVSAYGAGLEGGVTGNPAEFVVNTSNAGAGALSVTIDGPSKVKMDCQECPEGYRVTYTPMAPGSYLISIKYGGPYHIGGSPFKAKVTGPRLVSNHSLHETSSVFVDSLTKATCAPQHGAPGPGPADASKVVAKGLGLSKAYVGQKSSFTVDCSKAGNNMLLVGVHGPRTPCEEILVKHVGSRLYSVSYLLKDKGEYTLVVKWGDEHIPGSPYRVVVP
Kd [1]: 12.1 µM and 12.9 µM
Kd [2]: 9.6 ± 1.2 µM
